The data set is described as follows: protein stability index of a GFP-peptide fusion (GPS, HEK-293T) (PSI 1-6); higher = more stable.
[1] abbreviates: treatment: DMSO, c terminus: a fixed tail appended.
Where [2] appears, read: treatment: MLN4924 1 uM, 8 h, c terminus: a fixed tail appended.

± gives the standard deviation.
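Further: 24-mer peptide tiles fused after GFP, lentivirally expressed, FACS-sorted into six equal bins by GFP/DsRed ratio, decoded by Illumina sequencing, PSI is the read-weighted mean bin number.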

On to LQNQNFPYPVLFHNIFLLGGSSTS [NLN], for which the protein stability index runs as follows: under setting [1], 2.15 ± 0.92; under setting [2], 2.33 ± 0.4.
Regarding LQTGPLLGRPDSLELQRQREARKR [RSPH3], the protein stability index is, setting by setting: under setting [1], 4.83 ± 0.2; under setting [2], 5.08 ± 0.31.
Take LRADNAFMLLTQARLFDEPQLASL [BTBD1]: the protein stability index is 2.46 ± 0.85 under setting [1] and 2.34 ± 0.47 under setting [2].
For the sequence LRADQEKERKKREERERKRRKEEE [FAF2], the protein stability index by setting is: under setting [1], 5.435 ± 0.02; under setting [2], 5.35 ± 0.31.
For LRAGSSEFDSEHNLTSNEGHSLKN [RASAL3], in that order: 4.67 ± 0.42 and 4.87 ± 0.64.
Consider LRDPATITTLRVPVLRPMDLMVEA [PPP2R2B], for which the protein stability index by setting is: under setting [1], 2.85 ± 0.15; under setting [2], 2.94 ± 0.37.
For LRPTSVDPALRRRRRGPRNKKRGW [NOP53], in that order: 4.64 ± 0.56 and 4.29 ± 0.23.
As for LRYQFSRPGPQSVPLQLSAHWQCG [FCHO1], the protein stability index runs as follows: under setting [1], 2.2 ± 0.09; under setting [2], 2.12 ± 0.13.
For LSAANVCLDPIIYFFLCQPFREIL [P2RY14], in that order: 3.28 ± 0.74 and 2.58 ± 0.77.
In the same order, the values of LSAGSPPVPPGWNPNSSSGKGSGG [DLX1] are 4.86 ± 0.24 and 4.72 ± 0.1.
In the same order, the values of LSALLRATPGEYSVNICGMNEHPV [SPAG8] are 2.27 ± 0.27 and 2.42 ± 0.16.
For the sequence LSKQAKFAYKDEYEKFKLYLTIIL [TMEM120A], the protein stability index is, setting by setting: under setting [1], 2.61 ± 0.36; under setting [2], 2.48 ± 0.54.
Take LSLQKEQLQLKIIEIEDEAEKWQK [TRIM29]: the protein stability index under setting [1] turned out to be 3.87 ± 0.094 and the protein stability index under setting [2] amounted to 3.9 ± 0.43.
In the same order, the values of LSMLLTLKCEMNQMSGEPLDKLNF [ACSBG2] are 2.83 ± 0.46 and 2.29 ± 0.16.
As to LSPEVLRKEAYGKPVDIWACGVIL [CAMK2B], the protein stability index reads like this: under setting [1], 2.62 ± 0.71; under setting [2], 2.51 ± 0.4.
For LSQSPEPGRRGDPDTAPPSERPLE [RTN2], in that order: 5.56 ± 0.24 and 5.56 ± 0.15.
On to LSSSIIHEIDSILGNKPYSKKDYR [KCNAB2], for which the protein stability index runs as follows: under setting [1], 2.65 ± 0.26; under setting [2], 3.24 ± 0.45.
In the same order, the values of LSSVDMRMTSSPSSIPRRDDFFRH [RAD54B] are 3.21 ± 0.28 and 3.38 ± 0.34.
In the same order, the values of LSSYISINSDTGVLYALRSFDYEQ [PCDHGA10] are 2.12 ± 0.23 and 2.27 ± 0.092.
For LTCSLSFLLCARSLLRGFLLQNEF [MCOLN1], in that order: 3.34 ± 0.44 and 2.93 ± 0.46.
On to LTDGHFENILADNSVNDQTKILVV [SERPINB5], for which the protein stability index was found to be 3.09 ± 0.44 under setting [1] and 3.67 ± 0.29 under setting [2].
On to LTENTAENRELYIKTTLRELLVYI [PKD2L1], for which the protein stability index was found to be 2.31 ± 0.36 under setting [1] and 2.45 ± 0.33 under setting [2].
Turning to LTGTARYMSINTHLGKEQSRRDDL [CSNK1G1], the protein stability index reads like this: under setting [1], 3.9 ± 0.31; under setting [2], 4.02 ± 0.46.
Consider LTQWKDSLVSLVLYNMDLSDDHIR [ZER1], for which the protein stability index is, setting by setting: under setting [1], 2.52 ± 0.32; under setting [2], 2.31 ± 0.097.
LTRPEPVHEFCAGRECQPRWETSS [ADAMTSL2]: the protein stability index is 3.76 ± 0.15 under setting [1] and 3.98 ± 0.42 under setting [2].
As to LVHIVCHKKTTHKLNCDPSRIYKP [DFFB], the protein stability index stood at 2.41 ± 0.11 under setting [1] and 1.96 ± 0.41 under setting [2].
In the same order, the values of LVKQECIKEVVEKREACHCEEVKM [FAN1] are 4.54 ± 0.4 and 4.7 ± 0.23.
With LVLQTSEGKALQQYPSERELRGI [TRIM9], the protein stability index turned out to be 3.01 ± 0.96 (treatment: DMSO, c terminus: native) and 2.98 ± 0.54 (treatment: MLN4924 1 uM, 8 h, c terminus: native).
With LVTTHHLMVHGNERFIQYLASRNT [SNAP91], the protein stability index is, setting by setting: under setting [1], 2.18 ± 0.17; under setting [2], 2.07 ± 0.42.
LVYHPVQLSTPHAVGVLLLGLVGY [DHCR7]: the protein stability index reads like this: under setting [1], 3.5 ± 0.77; under setting [2], 3.08 ± 0.23.
With LYPSAPILGGSGPVRKLYDDCSST [ESRRG], the protein stability index is 3.82 ± 0.3 under setting [1] and 3.72 ± 0.24 under setting [2].
For MAESWLRLSGAGPAEEAGPEGGLE [FOXJ1], in that order: 4.67 ± 0.17 and 5.01 ± 0.22.
The sequence MDEISEKLKKGICEALEDSDGRQD [MATN2] had a protein stability index under setting [1] of 5.42 ± 0.25 and a protein stability index under setting [2] of 5.4 ± 0.17.
For MECYDIYSKTWTKQPDLTMVRKIG [GAN], in that order: 2.14 ± 0.34 and 2.66 ± 0.23.
With MEGLETAEGSNSESSDDDSEEAPS [SDE2], the protein stability index by setting is: under setting [1], 5.51 ± 0.2; under setting [2], 5.51 ± 0.39.
In the same order, the values of MEIATYRKLLESEECRMSGEFPSP [KRT71] are 3.91 ± 0.53 and 4.07 ± 0.36.
Regarding MENQVLTPHVYWAQRHRELYLRVE [HACD3], the protein stability index came to 2.4 ± 0.31 under setting [1] and 2.35 ± 0.27 under setting [2].
For MEPSPLSPSGAALPLPLSLAPPPL [ZBTB22], the protein stability index is 4.07 ± 0.35 under setting [1] and 4.11 ± 0.18 under setting [2].
In the same order, the values of MESKRLRLLQEEDRRKKIARMGFN [DCAF4] are 3.44 ± 0.36 and 3.73 ± 0.48.
With MFLHPVDYGRKAEELLWRKVYYEV [SMG5], the protein stability index by setting is: under setting [1], 2.45 ± 0.59; under setting [2], 2.11 ± 0.22.
MGQKVTGGIKTVDMRDPTYRPLKQ [SPSB1]: the protein stability index is, setting by setting: under setting [1], 3.89 ± 0.22; under setting [2], 4.01 ± 0.28.
For MKKIKKLENDTISKQLTLEQLRRE [CCDC6], in that order: 3.71 ± 1.1 and 3.84 ± 0.67.
For MKLFDSICNNKWFTDTSIILFLNK [GNAI1], in that order: 2.6 ± 0.59 and 2.58 ± 0.59.
As to MKVEAKSHLQWQESRLKRSNPLAR [ZSCAN9], the protein stability index is, setting by setting: under setting [1], 3.35 ± 0.33; under setting [2], 3.67 ± 0.19.
Turning to MLGYKRHLALHAASSGDLTCGVCA [PLAGL1], the protein stability index runs as follows: under setting [1], 2.53 ± 0.23; under setting [2], 2.73 ± 0.4.
Regarding MLLSVSQSMSEEEREKVTPLMVKG [SEPHS2], the protein stability index runs as follows: under setting [1], 3.83 ± 0.36; under setting [2], 3.86 ± 0.43.
With MLREPAEPVAAEPKQSGSFRYLQG [PDLIM4], the protein stability index was 4.18 ± 0.12 under setting [1] and 4.25 ± 0.17 under setting [2].
For MNARGLGSELKDSIPVTELSASGP [POMP], in that order: 4.78 ± 0.34 and 4.62 ± 0.23.
In the same order, the values of MNNAQRIEKWVILEKDFSIYGGEL [ACSBG2] are 2.2 ± 0.12 and 2.28 ± 0.57.
As for MPLSGTPAPNKKRKSSKLIMELTG [MYOZ1], the protein stability index was 3.63 ± 0.24 under setting [1] and 3.81 ± 0.22 under setting [2].
In the same order, the values of MQVHKETIDAVPNAIPGRTDIELE [ZNF207] are 4.97 ± 0.15 and 5.17 ± 0.18.
For the sequence MRAPMLQKQQAPRMDTPPPEERLE [CCDC89], the protein stability index is, setting by setting: under setting [1], 5.21 ± 0.24; under setting [2], 5.29 ± 0.29.
In the same order, the values of MRILAHGELVLATAISSFTRHVFT [TLE6] are 3.1 ± 0.61 and 2.76 ± 0.35.
The sequence MSEGKPPDKKKRPRRSLSISKNKK [FAN1] showed a protein stability index under setting [1] of 5.08 ± 0.17 and a protein stability index under setting [2] of 5.07 ± 0.21.
In the same order, the values of MSEWSECTAKCGERSVVTRDIRCS [ADAMTSL2] are 3.87 ± 0.45 and 3.74 ± 0.051.
With MSNKDRHIDSSCSSFIKTEPSSPA [ESRRG], the protein stability index is 4.33 ± 0.18 under setting [1] and 4.33 ± 0.17 under setting [2].
For MTPDIHELVENIKSVLKSDEEHME [FAM189A2], in that order: 4.72 ± 0.24 and 4.39 ± 0.66.
MVDSFHRTSLQYGIMCLKRLNYDR [PPFIA4]: the protein stability index reads like this: under setting [1], 1.88 ± 0.15; under setting [2], 2.27 ± 0.2.
For MYILSPAVLRRIQLQPTSIEKEVF [GMPPB], in that order: 2.29 ± 0.42 and 2.24 ± 0.41.
Take NDRDFLTRIFTEDRFAQDSEMKKC [PPEF2]: the protein stability index amounted to 4.61 ± 0.16 under setting [1] and 4.79 ± 0.21 under setting [2].
NDRGDHYHWKDLNRGINITIYGKT [EFHC1]: the protein stability index runs as follows: under setting [1], 2.5 ± 0.17; under setting [2], 2.39 ± 0.54.
As for NECEITKRRRKSCQACRFMKCLKV [ESRRG], the protein stability index amounted to 2.57 ± 0.056 under setting [1] and 2.95 ± 0.38 under setting [2].
Regarding NFARLQTCISELRMLQREGCFRSQ [M1AP], the protein stability index under setting [1] was 2.15 ± 0.31 and the protein stability index under setting [2] came out at 2.13 ± 0.2.
As to NFFRMFDRNTKRDVTLEASRESSK [PPP2R2C], the protein stability index is, setting by setting: under setting [1], 3.74 ± 0.32; under setting [2], 3.73 ± 0.26.
With NFSAAKSLLKKPDGVKESTESSNT [CAMK2D], the protein stability index runs as follows: under setting [1], 5.35 ± 0.22; under setting [2], 5.28 ± 0.35.
Regarding NGKTIEMDTQFTIRARELQNIYKC [IQUB], the protein stability index under setting [1] was determined as 2.57 ± 1.1 and the protein stability index under setting [2] is 2.8 ± 0.19.
For the sequence NGRKIMGKEVKVNWATTPSSQKKD [TIA1], the protein stability index by setting is: under setting [1], 4.43 ± 0.077; under setting [2], 4.55 ± 0.22.
On to NGTRVQEEPELVFTLGDCDVIQAL [FKBP8], for which the protein stability index is, setting by setting: under setting [1], 3.72 ± 0.28; under setting [2], 3.83 ± 0.17.
In the same order, the values of NGVSGPSQDLLPPPNPYPLPQEHS [TBX5] are 4.64 ± 0.33 and 4.54 ± 0.56.
Regarding NHGFEVLYHSVKQGPISTKELADF [FCHO1], the protein stability index reads like this: under setting [1], 3.4 ± 0.15; under setting [2], 3.29 ± 0.17.
In the case of NHPDLAKDLTEYLKVRSHDPEEAI [PDS5B], the protein stability index under setting [1] stood at 4.7 ± 0.23 and the protein stability index under setting [2] was 4.43 ± 0.59.
In turn, NIHPQVLLPDQARGEVPWSPELGR [ZNF263] showed a protein stability index under setting [1] of 4.12 ± 0.16 and a protein stability index under setting [2] of 4.34 ± 0.21.
